For orientation: Kd means a measure of binding affinity in units of concentration.

Non-standard residues stand in square brackets, D forms with d. No end group written: not given here. *: point of attachment. FITC = O=C1OC2(c3ccc(O)cc3Oc3cc(O)ccc32)c2ccc(NC(=S)*)cc21; pS = N[C@@H](COP(=O)(O)O)C(=O)O; Ahx = NCCCCCC(=O)O

The values that follow come from paper PMC8329713, “The identification and structural analysis of potential 14-3-3 interaction sites on the bone regulator protein Schnurri-3” (Acta Crystallographica. Section F, Structural Biology …, 2021).

Holding throughout (conditions): both partners purified
One test deals with T1, 14-3-3σ (full length) (human, UniProt P31947 1-248).
T1 construct: 14-3-3 protein sigma, human, full length; Expressed from a pPRoeX-Htb vector; also called 14-3-3 isoform σ; the σ isoform; source: E. coli NiCo21(DE3), purified (nickel column, TEV cleavage, second nickel column, SEC)
T1 sequence (looked up): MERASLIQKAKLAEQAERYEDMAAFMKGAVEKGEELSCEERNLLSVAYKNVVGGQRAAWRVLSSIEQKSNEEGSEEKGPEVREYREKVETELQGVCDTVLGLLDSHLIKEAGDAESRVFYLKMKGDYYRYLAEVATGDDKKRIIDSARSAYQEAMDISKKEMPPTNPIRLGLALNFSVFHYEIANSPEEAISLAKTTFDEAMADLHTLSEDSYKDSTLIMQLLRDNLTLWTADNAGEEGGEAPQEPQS
Briefly: ITC; peptide titrated into the cell containing the 14-3-3 protein, 18 injections of 2 µl, 25°C; 50 mM Tris pH 7.5, 150 mM NaCl, 5 mM MgCl2, 2 mM 2-mercaptoethanol, 0.05% Tween-20 (reducing conditions). (In general: ITC needs no label: the signal is the heat of the interaction.)

For another test, the target named is T2, 14-3-3γ (full length) (human, UniProt P61981 1-247).
T2 construct: 14-3-3 protein gamma, human, full length; Expressed from a pPRoeX-Htb vector; also called 14-3-3 isoform γ; source: E. coli NiCo21(DE3), purified (nickel column, TEV cleavage, second nickel column, SEC)
T2 sequence (looked up): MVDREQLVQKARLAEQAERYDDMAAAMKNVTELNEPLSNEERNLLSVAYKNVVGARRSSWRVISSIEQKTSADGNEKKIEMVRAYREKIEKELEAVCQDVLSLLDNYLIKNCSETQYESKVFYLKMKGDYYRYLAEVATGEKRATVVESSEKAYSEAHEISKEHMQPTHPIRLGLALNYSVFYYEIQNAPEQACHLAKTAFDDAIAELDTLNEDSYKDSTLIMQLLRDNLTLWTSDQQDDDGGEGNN
The test can be described thus: fluorescence polarisation; 14-3-3 isoforms (full length) serially diluted twofold in the presence of 10 nM FITC-labelled peptide; 50 mM Tris pH 7.5, 150 mM NaCl, 5 mM MgCl2, 0.05% Tween-20 (no reducing agent listed); one-site specific binding model. For orientation: Polarisation of emitted light reports the rotation of a fluorescent probe.

In the next test the target is T3, 14-3-3τ (full length) (human, UniProt P27348 1-245).
T3 construct: 14-3-3 protein theta (tau), human, full length; Expressed from a pPRoeX-Htb vector; also called 14-3-3 isoform τ; source: E. coli NiCo21(DE3), purified (nickel column, TEV cleavage, second nickel column, SEC)
T3 sequence (looked up): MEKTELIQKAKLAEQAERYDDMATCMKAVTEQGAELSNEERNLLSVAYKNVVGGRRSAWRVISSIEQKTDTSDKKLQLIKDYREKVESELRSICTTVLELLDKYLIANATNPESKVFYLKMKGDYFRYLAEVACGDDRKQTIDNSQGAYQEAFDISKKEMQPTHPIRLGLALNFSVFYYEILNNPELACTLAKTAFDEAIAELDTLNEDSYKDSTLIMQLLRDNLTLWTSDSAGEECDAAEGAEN
Described as above.

Another test has as its target T4, 14-3-3ɛ (full length) (human, UniProt P62258 1-255).
T4 construct: 14-3-3 protein epsilon, human, full length; Expressed from a pPRoeX-Htb vector; also called 14-3-3 isoform ɛ; source: E. coli NiCo21(DE3), purified (nickel column, TEV cleavage, second nickel column, SEC)
T4 sequence (looked up): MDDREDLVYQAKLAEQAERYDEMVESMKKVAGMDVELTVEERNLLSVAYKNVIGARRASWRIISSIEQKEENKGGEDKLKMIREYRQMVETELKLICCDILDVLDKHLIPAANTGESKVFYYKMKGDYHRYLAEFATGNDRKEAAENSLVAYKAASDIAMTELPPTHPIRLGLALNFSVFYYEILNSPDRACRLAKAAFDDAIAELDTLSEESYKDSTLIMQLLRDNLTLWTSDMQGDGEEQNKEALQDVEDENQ
Described as above.

The target in the next test is T5, 14-3-3ζ (full length) (human, UniProt P63104 1-245).
T5 construct: 14-3-3 protein zeta/delta, human, full length; Expressed from a pPRoeX-Htb vector; also called 14-3-3 isoform ζ; source: E. coli NiCo21(DE3), purified (nickel column, TEV cleavage, second nickel column, SEC)
T5 sequence (looked up): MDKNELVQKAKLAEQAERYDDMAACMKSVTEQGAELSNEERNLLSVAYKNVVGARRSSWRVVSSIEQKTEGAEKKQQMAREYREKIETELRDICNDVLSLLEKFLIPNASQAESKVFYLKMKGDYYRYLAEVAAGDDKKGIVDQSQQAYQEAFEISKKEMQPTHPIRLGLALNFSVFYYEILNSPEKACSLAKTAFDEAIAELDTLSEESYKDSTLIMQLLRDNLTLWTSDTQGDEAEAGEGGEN
The description is as above.

In the next test the target is T6, 14-3-3β (full length) (human, UniProt P31946 1-246).
T6 construct: 14-3-3 protein beta/alpha, human, full length; Expressed from a pPRoeX-Htb vector; also called 14-3-3 isoform β; source: E. coli NiCo21(DE3), purified (nickel column, TEV cleavage, second nickel column, SEC)
T6 sequence (looked up): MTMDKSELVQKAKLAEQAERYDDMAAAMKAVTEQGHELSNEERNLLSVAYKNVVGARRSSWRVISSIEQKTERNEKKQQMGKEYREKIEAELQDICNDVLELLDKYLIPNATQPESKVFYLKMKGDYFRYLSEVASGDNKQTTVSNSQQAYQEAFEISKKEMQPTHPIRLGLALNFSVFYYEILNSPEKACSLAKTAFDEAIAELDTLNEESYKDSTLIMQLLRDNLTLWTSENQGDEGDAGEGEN
The description is as above.

B1: SHN3pS542 peptide, N-terminally FITC-Ahx-labelled (peptide)
peptide: {FITC-Ahx}-LLRSH[pS]MPSAAC
modifications: also: phosphoserine at 542, position not mapped
notes: Schnurri-3 (SHN3, transcription factor HIVEP3), human, 12-mer around phosphorylated Ser542; also called SHN3pS542-FITC; the FITC-labelled form; source: synthetic peptide, bought: GenScript (purity >95%)
As to B1, the Kd worked out at 4.8 ± 0.8 µM with 14-3-3σ (full length) and 0.78 ± 0.05 µM in the test with 14-3-3γ (full length). The binding result with 14-3-3τ (full length), with 14-3-3ɛ (full length), with 14-3-3ζ (full length) and in the test with 14-3-3β (full length) was “binds” each time.
